Source: PMC3272482
Values joined by “and” are separate entries in the source; they are usually repeats but may differ in a detail not shown here. Equal entries are not always repeated. Where two headings read alike, the source gives them in different places.

Legend:
Test in all cases: cryo-EM structure
[1] = target: Escherichia coli DegQ, protease deficient S187A mutant (Escherichia coli) (UniProt P39099)
[2] = target: Escherichia coli DegQ, protease deficient S187A mutant (Escherichia coli) (UniProt P39099); remark: listed apart in the source
[3] = target: Escherichia coli DegQ, protease deficient S187A mutant (Escherichia coli) (UniProt P39099); remark: listed apart in the source

Escherichia coli DegQ, protease deficient S187A mutant (from UniProt P39099 28-455) (enzyme)
stoichiometry N [1]: 12 protomers
stoichiometry N [2]: 12 protomers
stoichiometry N [3]: 24 protomers and 12 protomers
